# Measurements published in the nanobody polyreactivity screen of Harvey et al. (2022).
# Experiment: yeast display, Sf9 membrane polyspecificity reagent, FACS + sequencing; frameworks hold sequencing errors
# In short: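 A synthetic nanobody library was expressed on Saccharomyces cerevisiae BJ5465 by galactose induction for 36–48 hours. The library was stained for 1 hour at 4 °C with 10% biotinylated, detergent-solubilized Sf9 membrane reagent and enriched with streptavidin microbeads before FACS. Low and high (top ~1%) gates were set on anti-HA fluorescence for expression and streptavidin fluorescence for reagent binding, and each polyreactivity label reflects the gate of origin.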
row,Sequence,polyreactivity (PSR sort gate)
1,QVQLVESGGGLVQAGGSLRLSCAASGSTIGRYTMGWYRQAPGKERELVAAITGSGAGTYYADSVKGRFTISRDNAKNTVYLQMNRLKPEDTAVYYCNTVFRGGQFRYVRGVKYGYWGQGTQVTVSS,high polyreactivity
2,QVQLVESGGGLVQAGGSLRLSCAASGSTIGSYAMGWYRQAPGKERELVAVITGGGDTNYADSVKGRFTISRDNAKNTVYLQMNSLKPEDTAVYYCAAEGSFYRYHVGSDYWGQGTQLTVSS,low polyreactivity
3,QVQLVESGGGLVQAGGSLRLSCAASGSTIGYNAMGWYRQAPGKERELVAAISGSGTDTRYADSVKGRFTISRDNAKNTFYLQMNSRNPEDTAVYYCAVSVVYRGSKRVRQNPMEYWGQGTQVTVSS,high polyreactivity
4,QVQLVESGGGLVQAGGSLRLSCAASGSTILTYVMGWYRQAPGKERELVAAISYSGGRSYYADSVKGRFTISRDTAKNTVYLQMNSLKPEDTAVYYCAAYRVNKSSRTMDYWGQGTQVTVSS,high polyreactivity
5,QVQLVESGGGLVQAGGSLRLSCAASGSTINFYAMGWYRQAPGKERELVAAIRVSSGSTYYADSVKGRFTISRDNAKNTVYLQMDSLKPEDTAVYYCAAYLKVRSPRDGYDYWGQGTQVTVSS,high polyreactivity
6,QVQLVESGGGLVQAGGSLRLSCAASGSTINIYAMGWYRQAPGKERELVAAISGRGGSTYYADSVKGRFTISRDNAKNTVYLQMNSLKPEDTAVYYSAASGYKVGSYRARMYYWGQGTQVTVSS,high polyreactivity
7,QVQLVESGGGLVQAGGSLRLSCAASGSTIPLYAMGWYRQAPGKERELVAAISRSGGRTYYADSVKGRFTISRDNAKNTVYLQMNSLKPEDTAVYYCDSAQGSRVDYWGQGTQVTVSS,high polyreactivity
8,QVQLVESGGGLVQAGGSLRLSCAASGSTIPPYAMGWYRQAPGNERELVAAITSGGSTYYADSVKGRFTISRDNAKNTVYLQMNSLKPEDTAVYYCAASWDPWEYDYWGQGTQVTVSS,low polyreactivity
9,QVQLVESGGGLVQAGGSLRLSCAASGSTISYYAMGWYIQAPGKERELVAAISQTGGTTYYADSVKGRFTISRDNAKNTVYLQMNSLKPEDTAVYYCNAARPGGHYWGQGTQVTVSS,low polyreactivity
10,QVQLVESGGGLVQAGGSLRLSCAASGSTISYYAMGWYRQAPGKERELVAAITWNGGSTYYADSVKGRFTISRDNAKNTVYLQMNSLKPEDTAVYYCAKDTYYYDYDYWGQGTQVTVSS,low polyreactivity
11,QVQLVESGGGLVQAGGSLRLSCAASGSTIVLNDKRCYRQAPGKERELVAAITWSGGSTYYADSVKGRFTISRDNAKNTVYLQMNSLKPEDTAVYYCNVDYYGWPYWYEYDYWGQGTQVTVSS,high polyreactivity
12,QVQLVESGGGLVQAGGSLRLSCAASGSTIVYYAMGWYRQAPGKERELVAAITSDGSTDYADSVKGRFTISRDNAKNTVYLQMNSLKPEDTAVYYCAVVTFYFCTDYYDVDYWGQGTQVTVSS,low polyreactivity
13,QVQLVESGGGLVQAGGSLRLSCAASGSTIYAYAMGWYRQAPGKERELVAAIDSGGSTYYADSVKGRFTISRDNAKNTVYLQMNSLKPEDTAVYYCAVRHRYTRAYWGRDYWGQGTQVTVSS,low polyreactivity
14,QVQLVESGGGLVQAGGSLRLSCAASGSTIYPNAMGWYRQAPGKERELVARISRTGGSTYADSVKGRFTISRDNAKNTVYLQMNSLIPEDSAVYYCARSYASFSWLRTKEPYEYWGQGTQVTVSS,low polyreactivity
15,QVQLVESGGGLVQAGGSLRLSCAASGSTIYPNAMGWYRQAPGKERELVAVISSGGSTYYADSVKGRFTISRDNAKNTVYLLMNSLKPVDTAVYYCAADRGTVSYLYSPRAVDYWGQGTQVTVSS,low polyreactivity
16,QVQLVESGGGLVQAGGSLRLSCAASGSTIYPNAMGWYRQAPGQERELVAVISSGGSTYYADSVKGRFTISRDNAKNTVYLQMNSLKPEDTAVYYCAADRGTVSYLYSPRAVDYWGQGTQVTVSS,low polyreactivity
17,QVQLVESGGGLVQAGGSLRLSCAASGSTIYWYAMGWYRQAPGKERELVAAITDSGDDTYYADSVKGRFTISRDNAKKTVYLQMNSLKPVDTAVYYCAGEAWSVAPYEYWGQGTQVTVSS,low polyreactivity
18,QVQLVESGGGLVQAGGSLRLSCAASGSTIYYAMGWYRQAPGKERELVAAISYSGGSTRYADSVKGRFTISRDNAKNTVYLEMNFLKPEDTSVYYCAAPRKYYYGESPLDYWGQGTQVTVSS,high polyreactivity
19,QVQLVESGGGLVQAGGSLRLSCAASGSTIYYNAMGWYRQAPGKERELVARISRSGGSTYADSVKGRFTISRDNAKNTVYLQMNSVKPEDTAVYYCNADAYGTPEFSSYAVRYDYWGQGTQVTVSS,low polyreactivity
20,QVQLVESGGGLVQAGGSLRLSCAASGSTIYYYAMGWYRQAPGKERELVASISDDGSTNYADSVKGRFTISRDNAKNTVYLQMNSLKPEDTAVYYCAAVWWHQFGSAWYQMGYWGQGTQVTVSS,low polyreactivity

row,Sequence,polyreactivity (PSR sort gate)
1,QVQLVESGGGLVQAGGSLRLSCAASGSTLAFYAMGWYRQAPGKERELVAAIRRGGSTYYADSVKGRFTISRDNAKNTVYLQMNSLKPEDTAVYYCAARYRRVSYYYWGQGTQVTVSS,high polyreactivity
2,QVQLVESGGGLVQAGGSLRLSCAASGSTLAIYAMGCYRQAPGKERELVASISRVGSTNYADSVKGRFTISRDNAKNTVYLQMNSRIPEDTAVYYCAARRWSYVILRAYYYWGQGTQETVSS,high polyreactivity
3,QVQLVESGGGLVQAGGSLRLSCAASGSTLAKYAMGWYRQAPGKERELVAAISRSGGRTYYADSEKGRFTISRDNAKNSVYLQMNSLKPEETAVYYCAARARSSRTYHDDYWGQGTQVTVSS,high polyreactivity
4,QVQLVESGGGLVQAGGSLRLSCAASGSTLAPYVKGWYIQAPGTERELVAVISTRTGRTYYADSVKGRFTISRDNAKNTVSLQMNSLKPEDTAVYYCAAAYGWSWYRYDYWGQGTQVTVSS,high polyreactivity
5,QVQLVESGGGLVQAGGSLRLSCAASGSTLAVYSMGWYRQAPGKEREFVAAISWSGVSTYYADSVKGRFTISRDNAKNTVYLQMNSLKPEDTAVYYCAAKRVRALYGGSEGGYWGQGTQVTVSS,low polyreactivity
6,QVQLVESGGGLVQAGGSLRLSCAASGSTLDLYAMGWYRQAPGKEREFVASISWSGGSTYYADSVKGRFTISRDNAKNTVYLQMNRLKPEDTAVYYCAADLVIRGSLYVSSWYDYWGQGSQVTVSS,low polyreactivity
7,QVQLVESGGGLVQAGGSLRLSCAASGSTLDVYDMGWYRKAPGKEREFVATISFSVGSTDYADSVKGRFTISRDNAKNTVYLQMNSLKPEDTAVYYCAADVSEWSNQYFDSYLRMDYWGQGTQVTVSS,low polyreactivity
8,QVQLVESGGGLVQAGGSLRLSCAASGSTLFFNARGWYRQAPGKERELVAGITDGGNTNYADSVKGRFTISRDNAKNTVYLQMNSLKPEDTAVYYCNARYSKKGESQREYDYWGQGTQVTVSS,low polyreactivity
9,QVQLVESGGGLVQAGGSLRLSCAASGSTLFNYDMGWYRQAPGKERELVAAFDWGDGTTYYADSVKGRFTISRDNAKNTVYLQMNSLKPEDTAVYYCAAEEFYSPYDYWGQGTQVTVSS,high polyreactivity
10,QVQLVESGGGLVQAGGSLRLSCAASGSTLFTYAMGWYRQAPGNERELVAAITSSGSTYYADSVKGRFTISRDNATNTVSLQMKSLKPEDTAVYYCAGPGYRYTNYYYWGQGTQVTVSS,low polyreactivity
11,QVQLVESGGGLVQAGGSLRLSCAASGSTLGINAMGWYRQAPGKERELVAAITWNGGSTYYADSVKGRFTISRDNAKNTVYLQMNSLKPEDTAVYYCAARTYSSRYYRTREGFDYYYWGQGTQVTVSS,high polyreactivity
12,QVQLVESGGGLVQAGGSLRLSCAASGSTLGQYAMGWYRQAPGKERELVAASRRGVRTYYADSVKGRFTISRDNAKNTVYFQMNSLKPEDTAVFYCAARRDVSRPVVGTMGYWGQGSQVTVSS,high polyreactivity
13,QVQLVESGGGLVQAGGSLRLSCAASGSTLGRYAMGWYRQAPGKERELVAAISSSGTTYYADSVKGRITISRDNAKNTVYLQMNSLKPEDTAVYYCNARGFRVARHAAWYQYDYWGQGTQVTVSS,high polyreactivity
14,QVQLVESGGGLVQAGGSLRLSCAASGSTLGRYTMGWSRQAPGKERELVAAIRASGTSTYYADSVKGRFTISRDNAKNTVYLQMNSLKPEDTAVYYCNALQFGTVRLDSWGLGTQVTVSS,low polyreactivity
15,QVQLVESGGGLVQAGGSLRLSCAASGSTLGRYTMGWYRQAPGKERELVATITASGGGTYYADSVKGRFTISRDTAKNTVYLQMNSLKPEDTAVYYCNAVLWYHFGYDYWGQGTQVTVSS,low polyreactivity
16,QVQLVESGGGLVQAGGSLRLSCAASGSTLGWYVMGWYRQAPGKERELVAAISKSGGRTYYADSVKGRFTISRDNAKNTVYLQMNSLKPEDTAVYYCAAYPPSDFYYEHDYWGQGTQVSVSS,high polyreactivity
17,QVQLVESGGGLVQAGGSLRLSCAASGSTLGYNVMGWYRQAPGKERELVAAISGDGSTNYADSVNGRFTMSRDNAKNTVYLQMNSLKPEDTAVYYCNAPFWGYRTSFSYPVVLRFDYWGQGTQVTVSS,low polyreactivity
18,QVQLVESGGGLVQAGGSLRLSCAASGSTLGYYSMGWYRQAPGKERELVAAIRYSDGNTYYADSVKGRFTISRDNAKNTVYLQMNSLKPEDTAVYYCAADGGYYGRDYWGQVTQVTVSS,high polyreactivity
19,QVQLVESGGGLVQAGGSLRLSCAASGSTLKLNAMGWYRQAPGKERELVAAITRSGGSTYYADSVKGRFTISRDNAKNTVYLQMNSLKPEDTAVYYCAADVLWDEFGYWGQGTQVTVSS,low polyreactivity
20,QVQLVESGGGLVQAGGSLRLSCAASGSTLLTYTMGWYRQAPGKERELVASITTSGGSTYADSVKGRFTISRDNAKNTVYLQLNSLKPEDTAVYYCAALYLWYSYHVVYQYDYWGQGTQVTVSS,low polyreactivity
